Laboratory results: the nanobody polyreactivity screen of Harvey et al. (2022)

Experiment: yeast display, Sf9 membrane polyspecificity reagent, FACS + sequencing; frameworks hold sequencing errors
Outline: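 Sorting gates, low and high (top ~1%), were placed on anti-HA fluorescence to track expression and on streptavidin fluorescence to track reagent binding. A clone's polyreactivity label is taken from the gate it came out of. The reagent was 10% biotinylated, detergent-solubilized Sf9 membrane, applied for 1 hour at 4 °C to galactose-induced yeast display cells.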

## QVQLVESRGGLVQAGGSLRLICAASGFILDTSAMGWYRQAPGKERALVAAISASGSSTYYADSVKGRFTISRDNAKNTLYLQMNSLKPEDTAVNYCAAKDTGYGYGFPRLDYWGQGTQVNVSS
  polyreactivity (PSR sort gate): low polyreactivity

## QVQLVESGGGLVQAGGSLRLSCAASGRTFRLYAMGWYRQAPGKVRELGAAITRGGRTNYADSVKGRFTISRDNAKNTVYLQMNSLKPEDTALYYCAARYVERHTDYYYWGQGTQVTVSS
  polyreactivity (PSR sort gate): low polyreactivity

## QVQLVESGGGLVQAGGSLRLSCAASGITFSYNAMGWSRQAPGKERELVAAISSNSDSTYYADSVKGRFTISRDNAKNTVYLQMNSLKPEDTAVYYCAADTPDAPDYSGFYYWGQGSQVTVSS
  polyreactivity (PSR sort gate): low polyreactivity

## QVHLVESGGGLVQAGGRLRLSCAASGRIFYTYAMGWYRQAPGKERELVAAITSGGSTYYADSVKGRFTISRDNAKNTVYLQMNSLKPEDTAVYYCNKVSYYRNEYWGQGSQVTVSS
  polyreactivity (PSR sort gate): high polyreactivity

## QEQLQESGGGLVQAGGSLRLSCAASGSISGSSTMGWYRQAPGKERELVASIAVGANTNYADSAKGRFTISRDNAKNTVYLQMNSLKPEDTAVYYCAVDYYIYYFHYWGQGTQVTVSS
  polyreactivity (PSR sort gate): high polyreactivity

## QVQLVESGGGLVQAGGSLRLSCAASGITSRQYAMGWYRQAPGKERELVAAISFSGGRTYYADSVKGRFTISRDNAKNTVYLQMNSLKPEVTAVYYCATRNRYSPRDYWGQGTQVTVSS
  polyreactivity (PSR sort gate): high polyreactivity

## QVQLVESGGGLVQAGGSLRLSCAASGRIFWTNAMGWYRQAPGKERELVAGITWRGGSTYYADSVKGRFTISRDNAKNTVYLQMNSLKPEDTAVYYCATRQGWYSGFDYWGQGTQVTVSS
  polyreactivity (PSR sort gate): high polyreactivity

## QVQLVESGGGLVQAGGSLRISCAASGRTFADYAMGWSRQEPGKERELVAAISWSGGSTYYADSVKGRFTISCDNAKNTVYLQMNSLKPEDTAVYYSNAVRQRGYDYWGQGTQVTVSS
  polyreactivity (PSR sort gate): low polyreactivity

## QVQLVESGGGLVQAGGSLRLSCSASGSTFAYYTMGWYRQAPGKERELVAAISRSGGSTYYSDSVKGRFTISRDNAKNTVYLQMNSLKPEDTAVYYCAADKHYAVIPYEYWGQVTQVTVSS
  polyreactivity (PSR sort gate): high polyreactivity

## QVQLVESGGGLVQAGGSLRLSCAASGITFYRYAMGWYRQAPGKERELVAGITRSGGSTYYADSVKGRFTISRDNAKNTVYLQMNSLKPEDTAVYYCAARIYSFRTKGGYGYWGQGTQVTVSS
  polyreactivity (PSR sort gate): high polyreactivity

## QVQLVESGGGLVQAGGILRLSCAASGFTFGLYAMGWYRQAPGTERELVAAIRNNGGSTYYADSVKGRFTISRDNAKNTVYLQMNSLKPDDTAVYYCAKKSFFTGRWWYDYWGQGTQVSVSS
  polyreactivity (PSR sort gate): high polyreactivity

## QVQLVESGGGLVQAGGSLRLSCAASGLTFIEYAMGWYRQAPGKERELVAAISSGGRTYYADSVKGRFTISRDNAKNTVYLQMNSLKPEDTAVYYCNARGYRRWYNYWGQGTQVTVSS
  polyreactivity (PSR sort gate): high polyreactivity

## QVQLVESGGGLVHAGGSLRLSCAASGITFYLYTMGWYRQAPGKERELVATITSGASTSYADSVKGRFTISRDNAKNTFYLQMNSLNPEDTAVYYCAARRTRVTGRYSVYAFDYWGQGTQVTVSS
  polyreactivity (PSR sort gate): low polyreactivity

## QVQLVESGGGLVQAGGSLRLSCAASGLTLTYYAMGWYRQAAGKERELVAAISSSGGSTYYADSVKGRFTISRDNAKNTVYLQMNSLKPEDTAVYYCAATRVSWTGRDDYWGQGTQVTVSS
  polyreactivity (PSR sort gate): high polyreactivity

## QVQLVESGGGLVQAGGSLRLSCAASGSTIVQNAMGWYRQAPAKERELVAAISRTGGSTYYADSVKGRFTISRDNAKNTVYLQMNSLKPEDTAVYYCAKRPPHYSWPKLIEFGSWGQGNQVTVSS
  polyreactivity (PSR sort gate): high polyreactivity

## QVQLVESGGGLVQAGGSLRLSCAASGLIFAYYAMGWYRQAPGKERELVAAISWSGDNTYYADSVKGRFTISRDNAKNTVYLEMNSLKPEDTAVYYCNVDTYGAWSWYYGLHHMDYWGQGTQVTVSS
  polyreactivity (PSR sort gate): low polyreactivity

## QVQLVESGGGIVQAGCSLRLSSAASGFTFYGYAMGWYRQAPGKERELVAAMSWDGSSTYYADSVKGRFTISRDNAKNTVYLPMNSLKPEDTAVYYCAREYYYGYYYPIQSDYWGQGTQVTVSS
  polyreactivity (PSR sort gate): low polyreactivity

## QVQLVESGGGLVQAGGSLRLSCAASGRIFSYAMGWYRQAPGKERELVAGISRSGGSTYYADSVKGRFTISRDNAKNTVYLQMNSLKPEDTAVYYCAAVKIRTVYKYNYWGQGTQVTVSS
  polyreactivity (PSR sort gate): high polyreactivity

## QVQLVESGGGLVQAGGSLRLSCAASGFTCTSNAMGWYRQAPGKERELVAAITFTGGRTYYADSVKGRFTISRDNAKNTVYLQMNSLKPEDTAVYYCNRVTAYYPTKFDYWGQGTQVTVSS
  polyreactivity (PSR sort gate): high polyreactivity

## QVQLVESGGGLVQAGGSLRLSCAASGRIFYDYTMGWYRQEPGKERELVAAINSGGGSTYYADSVKGRFTISRDNAKNTVYLQMNSLKPEVSAVYYCNADGQWNIWEYDYWGQGTQVTVSS
  polyreactivity (PSR sort gate): high polyreactivity

## QFQLVESGGGLVQEGGSLRLSCAPSGSTFRFYAMGWYRQSPGKERELVAVISSAGSTNYADSVKGRFTISRDNAKNTVYLQMNSLKPEDTAVYYCAAYRRYSIYNYWGEGTQVTVSS
  polyreactivity (PSR sort gate): high polyreactivity

## QVQLVESGGGLVQAGGSLRLSCAASGFIFVRNAMGWYRQAPGKERELVAVITRGGSTYYADSVKGRFTISRDNAKNTVYLQMNSLKPEDTAVYYCDARYYRGTYGRTEGAMDYWGQGTQVTVSS
  polyreactivity (PSR sort gate): high polyreactivity

## QVQLVESGGGLVQAGGSLRLSCAASGRIIGYYAMGWYRQAPGKERELVAAISRRGGSTYYADSVKGRFTISRDNAKNTVYLQINSLKPEDTAVYYCNADRVLTRPRYDYWGQGTQVTVSS
  polyreactivity (PSR sort gate): low polyreactivity

## QVQLVESGGGLVQAGGSLRLSCAASGFIFRNYAMGWYRQAPGKERELVAAISRGGRTNYADSVKGLFTISRDNAKNTVYLQMNSLKPEDTAVYYCNAVTVGLYDYWGQVTQVTVSS
  polyreactivity (PSR sort gate): high polyreactivity

## QVQLVESGGGLVQAGGSLRLSCAASGFIFVSNAMGWYRQAPGKERELVAAISKSGARTSYADSVKGRFTISRDNAKNTVYLQMNSLKPEDTAVYYCAASGSGVGIYYKRGNYWGQGTQVTVSS
  polyreactivity (PSR sort gate): high polyreactivity

## QVQLVESGGGLVQAGGSLRLSCAASGRTFVYYAMGWYRQAPGKEREFVATITSSGGSTYYADSVKGRFTISRDNAKNTVYLQMNSLKPEDTAVYYCSASPYIRYSKVSKYYYWGQGTQVTVSS
  polyreactivity (PSR sort gate): high polyreactivity

## QVQLVESGGGLVQAGGSLRLSCAASGFIFGGNTMGWSRQAPGKERELVASITLSGGRTHYADSVKGRFTISRDNAKNTVYLQMNSLKPEDTAVYYCARSLASYLHAGDTEYNGSYWGQGTQVTVSS
  polyreactivity (PSR sort gate): low polyreactivity

## QVQLVESGGGLVQAGGSLRLSCAASGRTFVVYAMGWYRQAPGKERELVAVIRVIGGSTNYADSVKGRFTISRDNAKNTVYLQMNSLKPEDTAVYYCAADGVVVVAADMYYWGQGTQVTVSS
  polyreactivity (PSR sort gate): low polyreactivity

## QDQLVESGGGLVQAGGSLRLSCAASGLIFPAYTMGWSRQAQGKERELVAAISRSGGSTYYADSVKGRFTISRDNAKNTVYLQMNSLKPEDTAVYYCAAYYSGGYDYWGLGTQVTVSS
  polyreactivity (PSR sort gate): high polyreactivity

## PVQLVESGGGLVQAGGSLRLSCAASGSIFGYYAMGWYRQAPGKERELVAAITWSGDSTYYADSVKGRFTISRDNAKNTVYLQMNSLKPEDTAVYYCAARQFVHTRYFSFGYWGQGTQVTVSS
  polyreactivity (PSR sort gate): low polyreactivity

## QVQLVESGGGLVQEGGSLRLSCADSGSISYQNAMGWYRQAPGKERELVAAISGDGDSTYYADSVKGRFTISRDNAKNTVYLQMNSLNPEDTGVYYCAAEPNVYFSVFVLFPSDYWGQGTQVTVSS
  polyreactivity (PSR sort gate): low polyreactivity

## QVQLVESGGGLVQAGGSLRLSCAASGGTFNRNAMGWYRQAPGKERELVAAISSSGGRTYYADSVKGRFTISRDNAKNTVYLQMNSLKPEDTAVYYCAAGRKGHGGAYDSWAQGTQVTVSS
  polyreactivity (PSR sort gate): high polyreactivity

## QVQLVESGGGVVQAGGSLRLSCAASGRIFVSNPMGWYRQAPGKERELVAAITSGGRTNYADSVKGRFTISRDNAKNTVYLQMNSLKPEDTAVYYCNARGYSSRGFRRYSTKYDYWGQGTQVTVSS
  polyreactivity (PSR sort gate): high polyreactivity

## QDQLEESVGGLVQAGGSLRLSCAASGSTFSYYAMGWYRQATGKERELVAAISTLGSSTYYADSVKGRFTISRDNAKNTVNLQMNSLKPEDTAVYYCAVDQYKYDWFYDYYGYTYVYWGQGTQVTVSS
  polyreactivity (PSR sort gate): high polyreactivity

## QVQLVESGGGLVQAGGSLRLSGAASGFNLEPNAMGWYRQAPGKERELVATISFSGGGTYYADSVKGRFTISRDNAKNTVYLQMNSLKPEDTAVYYCAADWYYYVWWYDYWGQGTQVTVSS
  polyreactivity (PSR sort gate): high polyreactivity

## QVQLVESGGGLVQAGGSLRLSCAASGITFFWYAMGWYRQAPGKERELVARITSDGSTSYADSVKGRFTISRDNAKNTVYLQMNSLKREDTAVYYCAADYSYIYQSWSGYENDYWGQGTQVTVSS
  polyreactivity (PSR sort gate): high polyreactivity

## QVQLVESGGGLVQAGGSLRLSCAASGRTSYTNAMGWYRQAPGKERELVAAINYSGGSTYYADSVKGRFTISRDNAKNTVYLQMNSLKPEDTAVYYCAAERYYWYTEMGYWGQGTQVTVSS
  polyreactivity (PSR sort gate): high polyreactivity

## QVQLVESGGGLVQAGGSLRLSCAASGFIFRYYAMGWSRQAPGKERELVAAITSGGRTSYADSVKGRFTISRDNAKNTVYLQMNSLKPEDTAVYYCAKDSYRQRYGSMEYWGQGTQVTVSS
  polyreactivity (PSR sort gate): high polyreactivity

## QVQLVESGGGLVQAGGSLRLSCAASGFTFYKNAMGWYRQAPGKERELVAAITRRGSRTYYADSVKGRFTISRDNAKNTVYLQMNSLKPEDTAVYYCAADDGSDAEYYYWGQGTQVTVSS
  polyreactivity (PSR sort gate): high polyreactivity

## QVQLVESGGGLVQAGGSLRLSCAASGNTFRYYAMGWYRQAPGKERELVAAISRNGGSTYADSVKGRFTISRDNAKNTVYLQMNSLKPEDTAVYYCNAYRIRPGTPYGKGYYYWGQGTQVTVSS
  polyreactivity (PSR sort gate): high polyreactivity

## HVELVDSGGGLVQAGGSLRLSCAASGSIFTDNTRGWFRQAPAKDRELVASISSGGRTYYADSVKGRFTISRDNAKNTVYLQMNSLKPEDTAVSYCAVSCWWKHNYWGQGTQVTVSS
  polyreactivity (PSR sort gate): high polyreactivity

## QVKLVESGGGLVQAGGSLRLSSDASGSIFLYNAMGWYRQAPGKERELVADISWSGGSTYYADSVKGRFTISRVNEKYTVYLQMNSLKPEDTAVYYCNAVVYWFSTSYVYTYDYWGQGTQVTVSS
  polyreactivity (PSR sort gate): high polyreactivity

## QVQLVESGGGLVQAGGSLRLSCAASGSTIYYNAMGWYRQAPGKERELVATITSAGRTNYADSVKGRFTISRDNAKNTVSLLMNSLKPEDTAVYYCNARYRLSRYNYWGQGTQVNVSS
  polyreactivity (PSR sort gate): low polyreactivity
